These results are taken from patent publication US20030236197A1.

The target of this assay is Aβ1-40 peptide (monomeric start material of the nucleation assay). Nature of the assay: cell-based or functional assay.

Take “PPI-969: TFA • N-ethyl-(Gaffvl)-NH2 (peptide)”: the Nucleation assay Δ lag at 1.25 µM compound (ratio of lag time to control) came to 3, the Nucleation assay Δ lag at 2.5 µM compound (ratio of lag time to control) is over 5 and the Nucleation assay Δ lag at 5 µM compound (ratio of lag time to control) is over 5.
Consider “PPI-1013: TFA • H-(Glvffl)-NH2 (peptide)”, for which the Nucleation assay Δ lag at 0.6 µM compound (row marked #: measured at 2.5, 1.25 and 0.6 µM) (ratio of lag time to control) is 2; the Nucleation assay Δ lag at 1.25 µM compound (row marked #: measured at 2.5, 1.25 and 0.6 µM) (ratio of lag time to control) was over 3; the Nucleation assay Δ lag at 2.5 µM compound (row marked #: measured at 2.5, 1.25 and 0.6 µM) (ratio of lag time to control) came to 2.
